Experimental data: paper PMC7954794, “Protein context shapes the specificity of SH3 domain-mediated interactions in vivo” (Nature Communications, 2021)

Tested on: Sla1 PPIs
Assay: DHFR-PCA of Sla1 SH3-swapped, -shuffled or -deleted baits (Fig. 2E, 4B, 4D, S5A)
Assay type: cell-based, Saccharomyces cerevisiae
Description: The stuffing of YSC84 SH3 rendered the strain sterile and was therefore not used for this study as the assays require crosses. For genes containing two SH3s (BZZ1 and BEM1), a combination of this first stuffer with a second one ([…]) coding for a highly similar linker ([…]) was used, which allowed targeting each SH3 position independently. The two N-terminal domains of SLA1, which are separated by six nucleotides, were stuffed by a single stuffer. Cells containing pCAS were selected via the G418 resistance cassette from the plasmid on YPD plates (YPD + NAT 100 μg/ml (DHFR F[1,2] selection) + G418 200 µg/mL (Bioshop Canada)). Colonies were randomly selected and grown in YPD media without G418 to allow plasmid loss. The correct insertion of the stuffer was validated by PCR and Sanger sequencing. The SH3-swapped, -shuffled, and -mutated strains were constructed following a second CRISPR–Cas9 editing step with the same procedures. The stuffer sequences were targeted by specific gRNAs (one gRNA per stuffer) and replaced by PCR amplified specific SH3 (with 40 bp homology arms) or libraries of mutated SH3 domains for Deep Mutational Scanning (DMS) with 78 bp flanking homology regions. Validation of the SH3 domain insertions was done as we previously described except for DMS libraries (see below).
The overall DHFR-PCA pipeline is based on Tarassov et al.[43] and the procedures have also been published as a visualized protocol. The screens were performed with robotically manipulated pin tools (BM5-SC1, S&P Robotics Inc.). First, the preys were cherry-picked from 96-well plates to omnitrays in a 384 format on YPD + HPH solid media. Plates were then combined into the 1536 format on YPD + HPH. The array was constituted of 575 preys previously shown to interact physically with at least one SH3-containing protein as reported in BioGRID V3.4.16 along with 40 negative controls. The prey array comprised a border of control strains of two rows and two columns corresponding to the PPI between LSM8-DHFR F[1,2] and CDC39-DHFR F[3]. This double border was used to remove border effects. Preys are present in duplicate at a randomized position in the 1536 array (except for YAL041W which is present four times per array). Baits were crossed with two prey plates, resulting in four independent bait–prey tests for each PPI. Baits were grown in liquid YPD + NAT and then transferred on solid YPD + NAT omnitrays. They were then replicated on YPD + NAT omnitrays in 1536 array format. Mating of DHFR F[1,2] baits with DHFR F[3] preys was done on YPD followed by incubation at 30 °C for 48 h. Two diploid selection steps were performed by replicating the plates on YPD + NAT + HPH and incubating them for 48 h at 30 °C. Pictures were taken at the end of the second diploid selection for quality control. All images were acquired with a EOS Rebel T5i camera (Canon). Finally, the diploid cells were replicated on omnitrays containing solid PCA selection media and incubated for 4 days as a first selection step in a spImager custom robotic platform (S&P Robotics Inc.). Cells were replicated for a second PCA selection step and incubated in the same manner. The last time point of the second PCA selection step was used for the data analysis as in previous studies using this method.
A separate DHFR-PCA screen was performed for the Sla1 SH3 shuffling experiment, with the same analysis as previously described. Three plates had no detectable level of background, which correspond to the second plate of the three Sla1 SH3 WT re-insertion controls. They were attributed the average of the background of the three first plates of the same baits. The threshold was also determined based on the distribution of the PCA scores of all PPIs and corresponds to the top 2.75% of all colonies detected in this experiment. […] Almost all true PPIs are from four replicates (96.2%). […]

B1: WT¦WT¦WT (protein, UniProt P32790 1-1244, looked up)
Actin cytoskeleton-regulatory …: MTVFLGIYRAVYAYEPQTPEELAIQEDDLLYLLQKSDIDDWWTVKKRVIGSDSEEPVGLVPSTYIEEAPVLKKVRAIYDYEQVQNADEELTFHENDVFDVFDDKDADWLLVKSTVSNEFGFIPGNYVEPENGSTSKQEQAPAAAEAPAATPAAAPASAAVLPTNFLPPPQHNDRARMMQSKEDQAPDEDEEGPPPAMPARPTATTETTDATAAAVRSRTRLSYSDNDNDDEEDDYYYNSNSNNVGNHEYNTEYHSWNVTEIEGRKKKKAKLSIGNNKINFIPQKGTPHEWSIDKLVSYDNEKKHMFLEFVDPYRSLELHTGNTTTCEEIMNIIGEYKGASRDPGLREVEMASKSKKRGIVQYDFMAESQDELTIKSGDKVYILDDKKSKDWWMCQLVDSGKSGLVPAQFIEPVRDKKHTESTASGIIKSIKKNFTKSPSRSRSRSRSKSNANASWKDDELQNDVVGSAAGKRSRKSSLSSHKKNSSATKDFPNPKKSRLWVDRSGTFKVDAEFIGCAKGKIHLHKANGVKIAVAADKLSNEDLAYVEKITGFSLEKFKANDGSSSRGTDSRDSERERRRRLKEQEEKERDRRLKERELYELKKARELLDEERSRLQEKELPPIKPPRPTSTTSVPNTTSVPPAESSNNNNSSNKYDWFEFFLNCGVDVSNCQRYTINFDREQLTEDMMPDINNSMLRTLGLREGDIVRVMKHLDKKFGRENIASIPTNATGNMFSQPDGSLNVATSPETSLPQQLLPQTTSPAQTAPSTSAETDDAWTVKPASKSESNLLSKKSEFTGSMQDLLDLQPLEPKKAAASTPEPNLKDLEPVKTGGTTVPAAPVSSAPVSSAPAPLDPFKTGGNNILPLSTGFVMMPMITGGDMLPMQRTGGFVVPQTTFGMQSQVTGGILPVQKTGNGLIPISNTGGAMMPQTTFGAAATVLPLQKTGGGLIPIATTGGAQFPQTSFNVQGQQQLPTGSILPVQKTANGLISANTGVSMPTVQRTGGTMIPQTSFGVSQQLTGGAMMTQPQNTGSAMMPQTSFNAVPQITGGAMMPQTSFNALPQVTGGAMMPLQRTGGALNTFNTGGAMIPQTSFSSQAQNTGGFRPQSQFGLTLQKTGGIAPLNQNQFTGGAMNTLSTGGVLQQQQPQTMNTFNTGGVMQELQMMTTFNTGGAMQQPQMMNTFNTDGIMQQPQMMNTFNTGGAMQQPQQQALQNQPTGFGFGNGPQQSRQANIFNATASNPFGF
Distance to bait ABP1¦WT¦WT
  Protein-protein interaction distance between Sla1 baits: 8.25
Distance to bait ABP1¦WT¦WT, listed as WT¦WT¦WT*
  Protein-protein interaction distance between Sla1 baits: 10.6959
Distance to bait D¦D¦D
  Protein-protein interaction distance between Sla1 baits: 16.1793
Distance to bait D¦D¦D, listed as WT¦WT¦WT*
  Protein-protein interaction distance between Sla1 baits: 19.5303
Distance to bait D¦D¦SH3-1
  Protein-protein interaction distance between Sla1 baits: 16.1305
Distance to bait D¦D¦SH3-1, listed as WT¦WT¦WT*
  Protein-protein interaction distance between Sla1 baits: 19.4574
Distance to bait D¦D¦WT
  Protein-protein interaction distance between Sla1 baits: 16.2907
Distance to bait D¦D¦WT, listed as WT¦WT¦WT*
  Protein-protein interaction distance between Sla1 baits: 19.6881
Distance to bait D¦WT¦D
  Protein-protein interaction distance between Sla1 baits: 11.2982
Distance to bait D¦WT¦D, listed as WT¦WT¦WT*
  Protein-protein interaction distance between Sla1 baits: 13.9439
Distance to bait D¦WT¦SH3-1
  Protein-protein interaction distance between Sla1 baits: 14.8539
Distance to bait D¦WT¦SH3-1, listed as WT¦WT¦WT*
  Protein-protein interaction distance between Sla1 baits: 18.0045
Distance to bait D¦WT¦SH3-2
  Protein-protein interaction distance between Sla1 baits: 16.1112
Distance to bait D¦WT¦SH3-2, listed as WT¦WT¦WT*
  Protein-protein interaction distance between Sla1 baits: 19.4593
Distance to bait D¦WT¦WT
  Protein-protein interaction distance between Sla1 baits: 11.2206
Distance to bait D¦WT¦WT, listed as WT¦WT¦WT*
  Protein-protein interaction distance between Sla1 baits: 13.8561
Distance to bait SH3-2¦SH3-1¦WT
  Protein-protein interaction distance between Sla1 baits: 14.7068
Distance to bait SH3-2¦SH3-1¦WT, listed as WT¦WT¦WT*
  Protein-protein interaction distance between Sla1 baits: 17.8199
Distance to bait SH3-2¦WT¦D
  Protein-protein interaction distance between Sla1 baits: 16.5686
Distance to bait SH3-2¦WT¦D, listed as WT¦WT¦WT*
  Protein-protein interaction distance between Sla1 baits: 19.9645
Distance to bait SH3-2¦WT¦WT
  Protein-protein interaction distance between Sla1 baits: 10.6088
Distance to bait SH3-2¦WT¦WT, listed as WT¦WT¦WT*
  Protein-protein interaction distance between Sla1 baits: 13.1093
Distance to bait SH3-3¦SH3-1¦D
  Protein-protein interaction distance between Sla1 baits: 6.071
Distance to bait SH3-3¦SH3-1¦D, listed as WT¦WT¦WT*
  Protein-protein interaction distance between Sla1 baits: 7.132
Distance to bait SH3-3¦SH3-1¦SH3-2
  Protein-protein interaction distance between Sla1 baits: 11.1253
Distance to bait SH3-3¦SH3-1¦SH3-2, listed as WT¦WT¦WT*
  Protein-protein interaction distance between Sla1 baits: 13.2567
Distance to bait SH3-3¦WT¦D
  Protein-protein interaction distance between Sla1 baits: 6.23
Distance to bait SH3-3¦WT¦D, listed as WT¦WT¦WT*
  Protein-protein interaction distance between Sla1 baits: 7.588
Distance to bait SH3-3¦WT¦SH3-1
  Protein-protein interaction distance between Sla1 baits: 7.451
Distance to bait SH3-3¦WT¦SH3-1, listed as WT¦WT¦WT*
  Protein-protein interaction distance between Sla1 baits: 7.53
Distance to bait SH3-3¦WT¦WT
  Protein-protein interaction distance between Sla1 baits: 5.911
Distance to bait SH3-3¦WT¦WT, listed as WT¦WT¦WT*
  Protein-protein interaction distance between Sla1 baits: 7.517
Distance to bait WT*¦WT¦WT
  Protein-protein interaction distance between Sla1 baits: 6.431
Distance to bait WT*¦WT¦WT, listed as WT¦WT¦WT*
  Protein-protein interaction distance between Sla1 baits: 3.21
Distance to bait WT¦ABP1¦WT
  Protein-protein interaction distance between Sla1 baits: 7.491
Distance to bait WT¦ABP1¦WT, listed as WT¦WT¦WT*
  Protein-protein interaction distance between Sla1 baits: 10.0527
Distance to bait WT¦D¦D
  Protein-protein interaction distance between Sla1 baits: 10.9978
Distance to bait WT¦D¦D, listed as WT¦WT¦WT*
  Protein-protein interaction distance between Sla1 baits: 13.667
Distance to bait WT¦D¦SH3-2
  Protein-protein interaction distance between Sla1 baits: 12.0771
Distance to bait WT¦D¦SH3-2, listed as WT¦WT¦WT*
  Protein-protein interaction distance between Sla1 baits: 14.877
Distance to bait WT¦D¦WT
  Protein-protein interaction distance between Sla1 baits: 11.0221
Distance to bait WT¦D¦WT, listed as WT¦WT¦WT*
  Protein-protein interaction distance between Sla1 baits: 13.7143
Distance to bait WT¦SH3-1¦D
  Protein-protein interaction distance between Sla1 baits: 6.357
Distance to bait WT¦SH3-1¦D, listed as WT¦WT¦WT*
  Protein-protein interaction distance between Sla1 baits: 7.675
Distance to bait WT¦SH3-1¦WT
  Protein-protein interaction distance between Sla1 baits: 5.709
Distance to bait WT¦SH3-1¦WT, listed as WT¦WT¦WT*
  Protein-protein interaction distance between Sla1 baits: 7.171
Distance to bait WT¦SH3-3¦D
  Protein-protein interaction distance between Sla1 baits: 9.961
Distance to bait WT¦SH3-3¦D, listed as WT¦WT¦WT*
  Protein-protein interaction distance between Sla1 baits: 12.4074
Distance to bait WT¦SH3-3¦SH3-2
  Protein-protein interaction distance between Sla1 baits: 12.7354
Distance to bait WT¦SH3-3¦SH3-2, listed as WT¦WT¦WT*
  Protein-protein interaction distance between Sla1 baits: 15.4687
Distance to bait WT¦SH3-3¦WT
  Protein-protein interaction distance between Sla1 baits: 10.0693
Distance to bait WT¦SH3-3¦WT, listed as WT¦WT¦WT*
  Protein-protein interaction distance between Sla1 baits: 12.5958
Distance to bait WT¦WT*¦WT
  Protein-protein interaction distance between Sla1 baits: 6.129
Distance to bait WT¦WT*¦WT, listed as WT¦WT¦WT*
  Protein-protein interaction distance between Sla1 baits: 3.181
Distance to bait WT¦WT¦ABP1
  Protein-protein interaction distance between Sla1 baits: 9
Distance to bait WT¦WT¦ABP1, listed as WT¦WT¦WT*
  Protein-protein interaction distance between Sla1 baits: 10.6328
Distance to bait WT¦WT¦D
  Protein-protein interaction distance between Sla1 baits: 5.067
Distance to bait WT¦WT¦D, listed as WT¦WT¦WT*
  Protein-protein interaction distance between Sla1 baits: 7.2651
Distance to bait WT¦WT¦SH3-1
  Protein-protein interaction distance between Sla1 baits: 4.945
Distance to bait WT¦WT¦SH3-1, listed as WT¦WT¦WT*
  Protein-protein interaction distance between Sla1 baits: 5.794
Distance to bait WT¦WT¦SH3-2
  Protein-protein interaction distance between Sla1 baits: 5.746
Distance to bait WT¦WT¦SH3-2, listed as WT¦WT¦WT*
  Protein-protein interaction distance between Sla1 baits: 6.816
Distance to bait WT¦WT¦WT
  Protein-protein interaction distance between Sla1 baits: 0
Distance to bait WT¦WT¦WT*
  Protein-protein interaction distance between Sla1 baits: 6.956
Distance to bait WT¦WT¦WT*, listed as WT¦WT¦WT*
  Protein-protein interaction distance between Sla1 baits: 0
Distance to bait WT¦WT¦WT, listed as WT¦WT¦WT*
  Protein-protein interaction distance between Sla1 baits: 6.956
